Results reported in patent US20240190991A1, “COMBINATION THERAPY WITH AN ANTI-CA19-9 ANTIBODY AND FOLFIRINOX IN THE TREATMENT OF CANCER” (BioNTech SE, priority 2021, published 2024).

Test system: locally-advanced or metastatic pancreatic ductal adenocarcinoma (PDAC)
Assay: Clinical study of MVT-5873 as monotherapy or combined with FOLFIRINOX in pancreatic cancer patients
Format: in vivo, human
Conditions: Group C patients; MVT 5873 0.5 mg/kg in combination with mFOLFIRINOX; one, two or six cycles of therapy
Description: A clinical study is performed comparing the therapeutic effect of the use of the MVT-5873 monoclonal antibody (5B1 monoclonal antibody) as a monotherapy or in combination with FOLFIRINOX in the treatment of pancreatic cancer, in patients with locally-advanced or metastatic pancreatic ductal adenocarcinoma (PDAC). Patients having other CA19-9-positive malignancies may also be included in the study.
The patients will be subdivided into the following groups: • Group A: A Q4 week monotherapy schedule employing a single dose of MVT 5873 administered 7 days prior to Cycle 1 Day 1 • Group B: A Q2 week monotherapy schedule employing a single dose of MVT 5873 administered 7 days prior to Cycle 1 Day 1 • Group C: A Q2 week schedule in combination with mFOLFIRINOX mFOLFIRINOX is a dose amount of FOLFIRINOX, in which FOLFIRINOX is administered at a dose of 65 mg/m^2 oxaliplatin, 400 mg/m^2 leucovorin, 150 mg/m^2 irinotecan, and 1200 mg/m^2 5-fluorouracil.
In certain groups, the patients, after completing the combination therapy will be administered the antibody having the ability to bind CA 19-9 as a monotherapy.
The administration schedule for Group C is depicted in FIG. 1.
A number of patients in Group C have been administered MVT 5873 at 0.5 mg/kg in combination with mFOLFIRINOX (65 mg/m^2 oxaliplatin, 400 mg/m^2 leucovorin, 150 mg/m^2 irinotecan, and 1200 mg/m^2 5-fluorouracil). […]

Substance: MVT 5873: fully human IgG1 monoclonal antibody that targets sialyl Lewis A (sLe^a), an epitope on CA19-9; VH and VL of SEQ ID NO: 2 and 4
- dose limiting toxicities: No dose limiting toxicities
